Laboratory results as given in US20230256092A1 (SHIONOGI, published 2023).
Residue numbers refer to the chain shown, from its start. In names and notes the source's numbering stands. Read-outs that look alike come from different tables or passages of the source.

T1: human CCR4 (human, UniProt P51679 1-360)
T1 construct: full length, on Expi293 cells; also called hCCR4
T1 sequence: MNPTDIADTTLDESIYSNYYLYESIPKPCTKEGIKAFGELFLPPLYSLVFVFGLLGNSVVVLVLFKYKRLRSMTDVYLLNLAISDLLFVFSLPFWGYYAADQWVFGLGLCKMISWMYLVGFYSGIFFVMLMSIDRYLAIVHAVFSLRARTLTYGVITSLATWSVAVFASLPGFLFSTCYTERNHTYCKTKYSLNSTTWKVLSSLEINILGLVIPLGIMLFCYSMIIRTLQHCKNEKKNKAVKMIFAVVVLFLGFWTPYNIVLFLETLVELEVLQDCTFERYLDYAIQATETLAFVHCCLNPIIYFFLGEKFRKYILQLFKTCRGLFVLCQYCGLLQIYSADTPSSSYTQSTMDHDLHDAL

T2: N-ter hCCR4-hCCR8 (human)
T2 construct: chimera on Expi293 cells; also called human CCR8 with the N-terminal region substituted with that of human CCR4
T2 chain: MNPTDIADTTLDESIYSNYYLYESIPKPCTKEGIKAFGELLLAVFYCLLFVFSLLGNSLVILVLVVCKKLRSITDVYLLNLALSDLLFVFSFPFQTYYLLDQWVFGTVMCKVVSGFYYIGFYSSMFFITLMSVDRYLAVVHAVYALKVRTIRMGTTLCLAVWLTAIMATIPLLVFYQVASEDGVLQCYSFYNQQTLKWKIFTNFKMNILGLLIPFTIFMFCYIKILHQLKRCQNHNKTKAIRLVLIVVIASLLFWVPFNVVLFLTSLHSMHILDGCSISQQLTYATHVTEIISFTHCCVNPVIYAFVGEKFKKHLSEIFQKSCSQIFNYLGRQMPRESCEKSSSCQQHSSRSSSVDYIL

T3: mouse CCR8 (mouse, UniProt P56484 1-353)
T3 construct: full length, on Expi293 cells; also called mCCR8
T3 sequence: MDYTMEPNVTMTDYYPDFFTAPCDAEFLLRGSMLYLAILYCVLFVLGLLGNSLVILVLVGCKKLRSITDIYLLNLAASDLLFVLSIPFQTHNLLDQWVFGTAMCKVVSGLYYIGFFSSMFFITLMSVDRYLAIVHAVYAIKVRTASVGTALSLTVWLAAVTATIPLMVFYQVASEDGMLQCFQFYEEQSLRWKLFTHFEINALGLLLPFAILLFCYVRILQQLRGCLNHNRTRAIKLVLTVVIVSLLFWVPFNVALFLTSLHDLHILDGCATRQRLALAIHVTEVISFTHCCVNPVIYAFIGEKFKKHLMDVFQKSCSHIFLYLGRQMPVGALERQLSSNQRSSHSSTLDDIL

B1: h19D7 (IGKV2-18/IGHV3-73) (antibody, V domains shown)
VH: EVQLVESGGGLVQPGGSLKLSCAASGFTFSTYAMYWVRQASGKGLEWVGRIRSKSNNYATYYADSVKDRFTISRDDSKNTAYLQMNSLKTEDTAVYYCTRGGYGNYRYAMDYWGQGTTVTVSS
VL: DIVMTQTPPSLPVNPGEPASISCRSSKSLLHSNGNTYLYWYLQKPGQSPQLLIYRVSNLASGVPDRFSGSGSGSDFTLKISWVEAEDVGVYYCMQHLEYPFTFGQGTKLEIK
B2: h10A11 (IGKV4-1/IGHV3-15 T94R) (antibody, V domains shown)
VH: EVQLVESGGALVKPGGSLRLSCAASGFTFSTYALYWVRQAPGKGLEWVGRIRSKSNNYATYYADSVKDRFTISRDDSKNTLYLQMNSLKTEDTAVYYCTRARFYYSDYGYAMDYWGQGTLVTVSS
VL: DIVMTQSPDSLAVSLGERATINCRSSKSLLHSNGNTYLYWYQQKPGQPPKLLIYRMSNLASGVPDRFSGSGSGTDFTLTISSLQAEDVAVYYCMQHLEYPLTFGQGTKLEIKR
B3: h10A11 (IGKV4-1/IGHV3-73) (antibody, V domains shown)
VH: B2 VH with A10G, K13Q, R19K, T28A, S30N, P41S, L81A
VL: B2 VL
B4: 2C7 (antibody, V domains shown)
VH: QVQLKQSGPSLVQPSQSLSITCTVSGFSLTAYGVHWIRQSPGKGQEWLGVIWRGGSTDYNAAFMSRLTITKDNSKSQVFFKMNSLQADDTAIYYCAKKGGSYAMDYWGQGTSVTVSS
VL: DVVLTQTPLSLPVSLGGQASISCRSSQSLVHSNGNTYLHWYLQKPGQSPKLLIYKVSNRFSGVPDRFSGSGSGTDFTLKISRVEAEDLGVYFCSQSTQVPLTFGAGTKLELKR
notes: mouse hybridoma antibody, purified
B5: 1H4 (antibody, V domains shown)
VH: EVQLVESGGRLVQPKGSLKLSCAASGFTFNTYAMYWIRQAPGKGLEWVARIRSKSNNYATYYADSVKDRFTISRDDSQSMLYLQMNNLKTEDTAMYYCVRARFYYSDYGYAMDYWGQGTSVTVSS
VL: DIVMTQAAPSVPVTPGESVSISCRSSKSLLHSNGNTYLYWFLQRPGQSPQLLIYRMSNLASGVPDRFSASGSGTAFTLRISRVEAEDVGVYYCMQHLEYPLTFGAGTKLELKR
notes: as for B4
B6: 8F7 (antibody, V domains shown)
VH: EVQLVESGGRLVQPKRSLKLSCAASGFTFNPYAMYWIRQAPGQGLEWVARIRSKSNNYATYYADSVKDRFTISRDDSQSMLYLQMNNLKTEDTAMYYCVRGHQGTMDYWGQGTSVTVSS
VL: B5 VL with I53T, A69G, L101F, A105G, L111I
notes: as for B4
B7: 10A11 (antibody, V domains shown)
VH: B5 VH with T28A, M34L
VL: B5 VL with A69G
notes: mouse hybridoma antibody, purified; also called m10A11

Experiments:
[1] = target: T4, human CCR8 (human, UniProt P51685 1-355); test: cell-based or functional assay
[2] = target: T4, human CCR8; test: cell-based or functional assay; remark: listed apart in the source
[3] = target: T4, human CCR8; test: cell-based or functional assay; remark: listed apart in the source
[4] = target: T4, human CCR8; test: cell-based or functional assay; remark: listed apart in the source
[5] = target: T4, human CCR8; test: cell-based or functional assay; remark: listed apart in the source
[6] = target: T5, loop2 hCCR4-hCCR8 (human, UniProt P51685 1-355); test: FCM, Expi293 transfectants; Δ = significantly reduced binding activity vs wild-type hCCR8
T5 construct: chimera on Expi293 cells; hCCR8 172-202 replaced; also called loop2-human CCR4-substituted human CCR8

[7] = target: T4, human CCR8; test: cell-based or functional assay; remark: listed apart in the source
[8] = target: T6, loop3 hCCR4-hCCR8 (human, UniProt P51685 1-355); test: FCM, Expi293 transfectants; blank cell = same binding activity as wild-type hCCR8
T6 construct: chimera on Expi293 cells; hCCR8 264-280 replaced

[9] = target: T7, hCCR8 (Y17A) (human, UniProt P51685 1-355); test: flow cytometry on Expi293 transfectants
T7 construct: also called mutant in which Y at position 17 of human CCR8 is substituted for A

[10] = target: T1, human CCR4; test: flow cytometry on Expi293 transfectants
[11] = target: T8, loop1 hCCR4-hCCR8 (human, UniProt P51685 1-355); test: flow cytometry on Expi293 transfectants
T8 construct: chimera on Expi293 cells; hCCR8 94-107 replaced; also called loop1-human CCR4-substituted human CCR8

[12] = target: T2, N-ter hCCR4-hCCR8; test: flow cytometry on Expi293 transfectants
[13] = target: T3, mouse CCR8; test: flow cytometry on Expi293 transfectants
[14] = target: T8, loop1 hCCR4-hCCR8; test: FCM, Expi293 transfectants; Δ = significantly reduced binding activity vs wild-type hCCR8
[15] = target: hCCR8 (K35A) (human, UniProt P51685 1-355); test: flow cytometry on Expi293 transfectants

| Binder | IC50 (nM), Ca2+ influx by 200 nM hCCL1 [1] [nM] | IC50 (nM), Ca2+ influx by 200 nM hCCL1 [2] [nM] | IC50 ratio (WT IC50/mutant IC50) [3] [ratio] | IC50 ratio (WT IC50/mutant IC50) [4] [ratio] | Neutralizing activity IC50 (nM), Ca2+ influx by 100 nM hCCL1 [5] [nM] | binding result [6] | IC50 (nM), Ca2+ influx by 200 nM hCCL1 [7] [nM] | binding result [8] | binding result [9] | binding result [10] | binding result [11] | binding result [12] | binding result [13] | binding result [14] | binding result [15] |
| --- | --- | --- | --- | --- | --- | --- | --- | --- | --- | --- | --- | --- | --- | --- | --- |
| B1 | 0.46 |  |  |  |  |  |  |  |  |  |  |  |  |  |  |
| B2 |  | 0.15 | 1 |  |  |  |  |  |  |  |  |  |  |  |  |
| B3 |  | 0.17 |  | 1 |  |  |  |  |  |  |  |  |  |  |  |
| B4 |  |  |  |  | 0.4 | binds | 1.19 | binds | no binding | no binding | no binding | no binding | no binding |  |  |
| B5 |  |  |  |  | 0.32 | binds | 0.36 | binds | no binding | no binding |  | no binding | no binding | binds | no binding |
| B6 |  |  |  |  | 1.56 | binds | 3.03 | binds | no binding | no binding | no binding | no binding | no binding |  |  |
| B7 |  | 0.23 |  |  | 0.08 | binds | 0.23 | binds | no binding | no binding |  | no binding | no binding | binds |  |
